Laboratory results from article doi:10.1101/2021.04.23.441157.
One block for each substance: values may come before it.

Tests used:
Assay in all cases: TIRF microscopy of filaments on supported lipid bilayers
[1] = molecular target: Cdc11a-Cdc11bCTE-capped septin octamer (Ashbya gossypii | S. cerevisiae) (UniProt P32468)
[2] = molecular target: Cdc11a-capped septin hetero-octamer (recombinant Ashbya gossypii septin complex) (Ashbya gossypii | S. cerevisiae) (UniProt P32468)
[3] = molecular target: Cdc11b-Cdc11aCTE-capped septin octamer (Ashbya gossypii | S. cerevisiae) (UniProt P32468)
[4] = molecular target: Cdc11b-capped septin hetero-octamer (recombinant Ashbya gossypii septin complex) (Ashbya gossypii | S. cerevisiae) (UniProt P32468)

average filament length at steady state [1]: 0.94 µm
average filament length at steady state, in octamers [1]: 29 octamers
Substance: Cdc11a-Cdc11bCTE-capped septin octamer (from UniProt P32468 1-407) (complex)

average filament length at steady state [2]: 0.72 µm
average filament length at steady state, in octamers [2]: 23 octamers
Substance: Cdc11a-capped septin hetero-octamer (recombinant Ashbya gossypii septin complex) (from UniProt P32468 1-407)

average filament length at steady state [3]: 0.55 µm
average filament length at steady state, in octamers [3]: 17 octamers
Substance: Cdc11b-Cdc11aCTE-capped septin octamer (from UniProt P32468 1-407) (complex)

average filament length at steady state [4]: 0.52 µm
average filament length at steady state, in octamers [4]: 16 octamers
Substance: Cdc11b-capped septin hetero-octamer (recombinant Ashbya gossypii septin complex) (from UniProt P32468 1-407)
